Measured values taken from the Human Domainome abundance scans (Beltran et al. 2025).

B1: POU domain, class 4, transcription factor 1, residues 266 to 347; numbered along this chain, Q01851 (parent)
chain: RELEAFAERFKQRRIKLGVTQADVGSALANLKIPGVGSLSQSTICRFESLTLSHNNMIALKPILQAWLEEAEGAQREKMNKP

Variants of: B1
Experiment: abundance fitness (aPCA) (normalised: wild type 0, dead -1); higher = more abundant; growth selection in yeast, the domain comes from the species named
Conditions: Homo sapiens

Abundance fitness of substitutions, site by site:
W67: L -0.475, N -0.65, P -0.646, Q -0.712, R -0.639, T -0.805, V -0.412, Y -0.175
L68: C -0.29, E -0.672, G -0.821, H -0.329, I 0.037, M -0.112, P -0.715, Q -0.568, R -0.774, S -0.497, T -0.459, V -0.074, W -0.626, Y -0.304
E69: A -0.022, C -0.168, D 0.011, F -0.174, G -0.207, H -0.076, I 0.056, K -0.036, L -0.036, N -0.022, P -0.612, Q -0.018, R -0.111, S -0.054, T -0.085, V -0.073, W -0.224, Y -0.171
E70: A -0.07, C -0.125, D -0.018, F -0.198, G -0.061, H -0.077, I -0.161, K 0.004, L -0.18, M -0.1, P -0.657, Q -0.015, R -0.046, S -0.006, T -0.026, V -0.176, W -0.311, Y -0.145
A71: D -0.572, E -0.062, F -0.289, G -0.379, H -0.146, I -0.18, K 0.072, M -0.005, N 0.044, P -0.588, Q -0.051, R -0.051, S -0.079, T 0.062, W -0.186, Y -0.353
E72: C -0.416, D -0.259, G -0.267, H -0.456, I -0.179, K -0.518, L -0.431, M -0.349, N -0.35, P -0.348, Q -0.21, R -0.421, S -0.229, T -0.244, V -0.35, W -0.415, Y -0.138
G73: A 0.015, C -0.013, D -0.105, E 0.125, F -0.056, H -0.068, I 0.121, K -0.046, L 0.056, M -0.065, N 0.003, P -0.259, Q 0.043, R -0.054, S -0.027, T 0.063, V 0.071, W -0.205, Y 0.144
A74: C 0.012, D -0.027, E 0.025, F -0.035, G -0.044, H -0.009, K -0.009, L 0.006, M -0.016, N -0.019, P -0.05, Q -0.029, R -0.008, S 0.005, T -0.013, V -0.005, W -0.137, Y 0.002
Q75: A 0, C -0.015, D -0.045, E -0.01, F -0.043, H 0.041, I -0.051, L -0.001, M -0.025, N -0.061, P -0.063, R -0.028, T -0.033, V -0.025, W -0.077, Y -0.085
R76: A 0.03, C 0.012, D -0.015, E 0.016, F -0.032, G 0.007, H -0.003, I -0.029, K -0.006, L 0.012, M 0.044, N 0.026, P -0.002, Q -0.003, T 0.008, V -0.009, W -0.056, Y -0.124
E77: A -0.044, C -0.088, D 0.006, F -0.16, G -0.025
